The target of assay [1] is monkey CD3 complex on cell surfaces (monkey PBMCs) (monkey). The assay is described as follows: FACS on monkey PBMCs (Cyno-PBMC), given by the filing as binding to monkey CD3; PE goat anti-human IgG, MFI.
The target in assay [2] is monkey CD20 (HEK293A/monkey CD20 cells) (monkey). The assay is described as follows: FACS on HEK293A/monkey CD20 (CynoCD20) cells, PE anti-human IgG secondary antibody, MFI.
For assay [3], the target named is human CD3ε-his (Cat #:10977-H08s, SinoBiological, China) (human) (UniProt P07766). Kind of assay: SPR (BIAcore 8K); human CD3ε-his coupled to CM5 chip, antibody injected. On the technique in general: SPR reads the build-up and loss of mass on a sensor chip optically.
The target is the same in assay [4]. The assay is described as follows: ELISA: plate coated with human CD3ε-his (hCD3ε-his), antibody titrated, HRP goat anti-human IgG, OD450.

human CD3ε-his (Cat #:10977-H08s, SinoBiological, China) (human), sequence (P07766 23-126 limits assumed): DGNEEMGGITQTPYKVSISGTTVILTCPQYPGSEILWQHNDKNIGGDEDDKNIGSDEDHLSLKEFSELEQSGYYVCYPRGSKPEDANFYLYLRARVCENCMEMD
monkey CD20 (HEK293A/monkey CD20 cells) (monkey), sequence (P11836 other isoform, or with tags, fused parts or gaps): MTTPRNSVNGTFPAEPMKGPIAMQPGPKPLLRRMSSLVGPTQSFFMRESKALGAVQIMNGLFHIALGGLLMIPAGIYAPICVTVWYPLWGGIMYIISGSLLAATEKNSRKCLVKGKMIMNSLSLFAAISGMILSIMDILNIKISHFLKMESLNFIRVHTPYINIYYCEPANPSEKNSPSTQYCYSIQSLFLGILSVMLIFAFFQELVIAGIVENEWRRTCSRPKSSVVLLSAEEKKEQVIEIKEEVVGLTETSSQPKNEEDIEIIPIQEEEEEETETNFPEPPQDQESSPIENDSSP

As usually defined, the EC50 (read off the curve) is the midpoint of the concentration-response curve. As a reminder, the Kd is the concentration at which binding is half-saturated. For the substance “CD20-TCB (reference bispecific antibody against CD3 and CD20)”, the figures for the EC50 (read off the curve) in assay [1], in assay [2] and in assay [4] were 0.6 µg/mL, 0.06 µg/mL and 0.1 µg/mL, respectively. Moreover, in assay [3], the Kd was determined as 5.6 nM.

The record behind these values is patent US20220195043A1.
